3 molecules from patent publication US20180105596A1 (ELSALYS BIOTECH, published 2018) can be followed below.

Assay [1] concerns the target T1, Ig-1 and Ig-2 domains fragment of human Tyro3 ECD, His-Strep tagged (human).
T1 construct: also called Ig1-Ig2 fragment
T1 chain: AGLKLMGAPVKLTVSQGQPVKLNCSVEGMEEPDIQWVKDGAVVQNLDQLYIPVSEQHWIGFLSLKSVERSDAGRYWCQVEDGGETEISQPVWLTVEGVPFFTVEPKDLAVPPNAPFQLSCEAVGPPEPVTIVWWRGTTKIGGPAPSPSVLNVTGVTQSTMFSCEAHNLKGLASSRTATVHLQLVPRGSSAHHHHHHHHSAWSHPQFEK
As to the kind of experiment: sandwich ELISA, Strep-tagged fragment captured on StrepMAB plate, scFv 10 µg/mL (Table 17), anti-FLAG-HRP. Background: An ELISA detects its analyte on a solid surface through an enzyme-linked reagent.

The target in assay [2] is T2, Ig-1 domain fragment of human Tyro3 ECD, His-Strep tagged (human).
T2 chain: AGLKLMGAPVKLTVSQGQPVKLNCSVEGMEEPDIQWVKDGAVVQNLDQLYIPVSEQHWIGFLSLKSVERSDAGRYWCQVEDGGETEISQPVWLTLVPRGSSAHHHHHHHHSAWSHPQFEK
The description is as above.

Assay [3] deals with T3, Tyro3 ECD Ig2-FNIII 1.
T3 construct: also called Ig2 + FNIII 1 fragment of hTyro3 ECD, His-Strep tagged
T3 fragment: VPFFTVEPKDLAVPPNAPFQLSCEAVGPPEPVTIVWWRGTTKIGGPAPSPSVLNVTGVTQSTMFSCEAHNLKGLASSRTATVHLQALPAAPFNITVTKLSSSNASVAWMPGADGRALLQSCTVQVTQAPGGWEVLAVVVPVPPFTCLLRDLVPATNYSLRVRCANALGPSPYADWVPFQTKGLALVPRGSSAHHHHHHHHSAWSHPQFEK
The description is as above.

The target of assay [4] is T4, Tyro3 ECD FNIII 1-FNIII-2.
T4 construct: also called FNIII 1 + FNIII 2 fragment of hTyro3 ECD, His-Strep tagged
T4 fragment: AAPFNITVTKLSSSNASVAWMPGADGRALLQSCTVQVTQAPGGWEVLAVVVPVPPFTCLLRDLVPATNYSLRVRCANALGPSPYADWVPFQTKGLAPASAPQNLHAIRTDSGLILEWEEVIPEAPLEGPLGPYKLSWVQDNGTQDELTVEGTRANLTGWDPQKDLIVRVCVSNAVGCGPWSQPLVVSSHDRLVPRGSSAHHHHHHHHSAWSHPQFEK
Described as above.

The target of assay [5] is T5, hTyro 3-ECD.
T5 construct: not the His-Strep tagged ECD m13; also called Recombinant Human Dtk-Fc Chimera (R&D Systems 859-DK-100); not shown: Human Fc, and any linker, of the commercial chimera (R&D Systems 859-DK-100)
T5 chain: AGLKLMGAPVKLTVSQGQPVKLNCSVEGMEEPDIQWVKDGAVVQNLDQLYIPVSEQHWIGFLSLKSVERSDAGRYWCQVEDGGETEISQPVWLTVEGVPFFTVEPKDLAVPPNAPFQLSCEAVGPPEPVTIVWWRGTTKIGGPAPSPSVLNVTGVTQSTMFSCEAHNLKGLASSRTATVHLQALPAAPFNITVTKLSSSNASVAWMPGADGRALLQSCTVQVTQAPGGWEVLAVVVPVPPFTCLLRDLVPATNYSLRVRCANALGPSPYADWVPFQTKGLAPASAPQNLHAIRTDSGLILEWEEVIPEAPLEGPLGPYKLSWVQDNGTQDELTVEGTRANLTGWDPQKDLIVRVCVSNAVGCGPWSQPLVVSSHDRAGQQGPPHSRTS
Briefly: ELISA, ECD coated 1 µg/well, scFv 1 µg/mL, anti-tag-HRP. As to the method:
(§1) Extracellular domains of hTyro 3 (859-DK-100), hAxl (154-AL-100) or hMer (891-MR-100) from R&D Systems were coated onto 96-wells microtiter plates (1 μg/well) in PBS and incubated overnight at 4° C. Plates were washed three times with PBS and blocked in PBS/3% BSA for 1 hour at RT. Plates were washed as above and scFvs were added at 1 μg/mL (diluted in PBS) and incubated for 1 hour at RT. Plates were washed three times with PBST (PBS/0.01% Tween-20) and secondary antibody anti-FLAG-HRP was added (Abcam, ab49763, 1/5000 dilution in blocking buffer) for 1 hour at RT. Plates were washed as above with PBST and signal was developed with Ultra-TMB reagent (Thermo Scientific, 34028).

The target of assay [6] is T6, extracellular domain of human Mer, Fc fusion (R&D Systems 891-MR-100) (human, UniProt Q12866 21-505).
T6 construct: Bought protein; also called hMer; hMER; not shown: Fc of the bought ECD-Fc fusion
T6 sequence: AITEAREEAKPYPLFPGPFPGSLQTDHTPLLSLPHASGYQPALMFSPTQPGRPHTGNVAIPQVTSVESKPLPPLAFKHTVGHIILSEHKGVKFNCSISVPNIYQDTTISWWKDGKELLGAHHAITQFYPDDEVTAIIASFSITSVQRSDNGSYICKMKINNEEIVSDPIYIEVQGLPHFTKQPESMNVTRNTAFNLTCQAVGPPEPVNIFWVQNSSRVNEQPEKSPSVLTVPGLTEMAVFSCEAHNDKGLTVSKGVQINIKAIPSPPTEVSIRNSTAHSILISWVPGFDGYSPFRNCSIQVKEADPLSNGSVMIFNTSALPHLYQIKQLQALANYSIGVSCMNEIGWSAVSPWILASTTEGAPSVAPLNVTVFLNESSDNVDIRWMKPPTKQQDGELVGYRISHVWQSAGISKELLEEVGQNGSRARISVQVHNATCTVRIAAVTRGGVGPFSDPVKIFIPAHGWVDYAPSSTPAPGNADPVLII
The assay is described as above. As to the method: as §1

Assay [7] concerns the target T7, extracellular domain of human Axl, Fc fusion (R&D Systems 154-AL-100) (human, UniProt P30530 26-451).
T7 construct: Bought protein; also called hAxl; hAXL; not shown: Fc of the bought ECD-Fc fusion
T7 sequence: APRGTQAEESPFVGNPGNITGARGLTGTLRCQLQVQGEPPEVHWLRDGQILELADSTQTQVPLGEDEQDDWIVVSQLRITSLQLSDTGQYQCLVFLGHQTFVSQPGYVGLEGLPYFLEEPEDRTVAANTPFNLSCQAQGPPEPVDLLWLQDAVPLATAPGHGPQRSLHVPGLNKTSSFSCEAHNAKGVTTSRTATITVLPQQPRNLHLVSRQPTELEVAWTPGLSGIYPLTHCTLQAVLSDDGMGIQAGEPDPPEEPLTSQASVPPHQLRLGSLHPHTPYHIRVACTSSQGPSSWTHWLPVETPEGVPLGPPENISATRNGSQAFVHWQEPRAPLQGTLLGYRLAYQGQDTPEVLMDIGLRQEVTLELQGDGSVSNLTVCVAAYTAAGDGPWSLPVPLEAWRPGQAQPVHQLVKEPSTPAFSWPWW
The description is as above. As to the method:
as §1

B1: anti-Tyro3 scFv 2413 (scFv, V domains shown)
VH: EVQLVQSGADVKKPGASLTISCQASGYTFTDYWISWVRQKPGKGLEWMGRIHTYQSSTRYGPSFQGHVTISADRSTATAYLQWRSLEASDTAMYYCVRHHSTTTANPYSSWGPGTLVTVSS
VL: SYELTQPPSVSVSPGQTARITCSGDALPKKYAYWYQQKSGQAPVLVIYEDDKRLSGIPERFSGSSSGTMATLTISGAQVEDEADYYCYSTEINGNYAVFGGGTKLTVL
notes: Tested as a single-chain Fv made in E. coli
Turning to B1, the binding result is given as “binds” in assay [1]; “binds” in assay [2]; “binds” in assay [3]; “no binding (tested: 10 µg/mL)” in assay [4]; “binds” in assay [5]; “no binding (tested: 1 µg/mL)” in assay [6]. Besides, the binding result in assay [7] is on record as “no binding (tested: 1 µg/mL)”.

B2: anti-Tyro3 scFv 2411 (scFv, V domains shown)
VH: EVQLVQSGADVKKPGASLTISCQASGYTFTDYWISWVRQKPGKGLEWMGSITRSSSRTHYGPSFQGHVTISADRSTATAYLQWRSLEASDTAMYYCVRGYTHLRTWGPGTLVTVSS
VL: SYELTQPPSVSVSPGQTARITCSGDALPKKYAYWYQQKSGQAPVLVIYEDSKRSSGIPERFSGSSSGTMATLTISGAQVEDEADYYCYSANQRGNYMVFGGGTKLTVL
notes: as for B1
Regarding B2, the binding result is given as “binds” in assay [1]; “binds” in assay [2]; “binds” in assay [3]; “no binding (tested: 10 µg/mL)” in assay [4]; “binds” in assay [5]; “no binding (tested: 1 µg/mL)” in assay [6]. Moreover, in assay [7], the binding result is reported as “no binding (tested: 1 µg/mL)”.

B3: anti-Tyro3 scFv 2718 (scFv, V domains shown)
VH: EVQLVQSGADVKKPGASLTISCQASGYTFTDYWISWVRQKPGKGLEWMGHINPMRSTTTYGPSFQGHVTISADRSTATAYLQWHSLEASDTAMYYCVRNDNHDDYTYTDDWGPGTLVTVSS
VL: SYELTQPPSVSVSPGQTARITCSGDALPKKYAYWYQQKSGQAPVLVIYEDTKRHSGIPERFSGSSSGTMATLTISGAQVEDEADYYCYSAEHRGNYAVFGGGTKLTVL
notes: as for B1
As to B3, the binding result was “no binding (tested: 10 µg/mL)” in assay [1]; “no binding (tested: 10 µg/mL)” in assay [2]; “binds” in assay [3]; “binds” in assay [4]; “binds” in assay [5]; “no binding (tested: 1 µg/mL)” in assay [6]. Further, in assay [7], the binding result is “no binding (tested: 1 µg/mL)”.
